Measured values reported in the supplement of paper PMC7877785.
± gives the uncertainty stated by the source.

Assay: self-splicing fitness, log relative to wild type (ln ratio); higher = more splicing; Tetrahymena group I intron in knt gene, E. coli kanamycin selection, DiMSum; sequences stand for … in CUCUCU…GGAGGGAAAAGUUAUCAGGCAUGCACCUGGUAGCUAGUCUUUAAACCAAUAGAUUGCAUCGGUUUAAAAGGCAAGACCGUCAAAUUGCGGGAAAGGGGUCAACAGCCGUUCAGUACCAAGUCUCAGGGGAAACUUUGAGAUGGCCUUGCAAAGGGUAUGGUAAUAAGCUGACGGACAUGGUCCUAACCACGCAGCCAAGUCCUAAGUCAACAGAUCUUCUGUUGAUAUGGAUGCAGUUCACAGACUAAAUGUCGGUCGGGGAAGAUGUAUUCUUCUCAUAAGAUAUAGUCGGACCUCUCCUUAAUGGGAGCUAGCGGAUGAAGUGAUGCAACACUGGAGCCGCUGGGAACUAAUUUGUAUGCGAAAGUAUAUUGAUUAGUUUUGGAGUACUCGUGGUCG
Summary of the method: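 Colonies from six replicate transformations of E. coli BL21(DE3) were pooled and amplicon-sequenced on an Illumina HiSeq 2500. The library placed an intron with all eight P1ex-region nucleotides randomised inside the knt kanamycin-resistance gene on pET-22b(+), and cells grew overnight at 37°C or 30°C on LB agar with or without 25 μg/mL kanamycin (plus 100 μg/mL carbenicillin, 50 μM IPTG, 0.2% rhamnose). Fitness is the DiMSum error-weighted combination of wild-type-normalised replicate fold changes, kanamycin versus none.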

Row | Sequence | self-splicing fitness (ln) (30 °C) | self-splicing fitness (ln) (37 °C)
1 | AUAUAGCAAUAUUACGGUAA | -1.94 ± 0.15 | -0.869 ± 0.13
2 | AUAUAGCAAUAUUACGGUGC | -2.77 ± 0.38 | -1.94 ± 0.27
3 | AUAUAGCAAUAUUACGGUUU | -1.31 ± 0.091 | -0.854 ± 0.11
4 | AUAUAGCAAUAUUACGUAUU | -2.94 ± 0.22 | -1.63 ± 0.21
5 | AUAUAGCAAUAUUACGUGGA | -3.57 ± 0.27 | -3.04 ± 0.26
6 | AUAUAGCAAUAUUACGUGGG | -3.53 ± 0.28 | -3.28 ± 0.33
7 | AUAUAGCAAUAUUACGUUCC | -1.69 ± 0.29 | –
8 | AUCAAGCAAUAUUACGACCA | -0.886 ± 0.13 | 0.0541 ± 0.14
9 | AUCAAGCAAUAUUACGACGU | 0.145 ± 0.071 | -0.14 ± 0.067
10 | AUCAAGCAAUAUUACGACUU | -0.501 ± 0.049 | 0.297 ± 0.064
11 | AUCAAGCAAUAUUACGAGUU | -1.57 ± 0.081 | -1.42 ± 0.097
12 | AUCAAGCAAUAUUACGAUGA | -0.483 ± 0.076 | -0.19 ± 0.086
13 | AUCAAGCAAUAUUACGCACA | -0.256 ± 0.066 | -0.0877 ± 0.076
14 | AUCAAGCAAUAUUACGCACG | -2.1 ± 0.15 | -2.28 ± 0.18
15 | AUCAAGCAAUAUUACGCAUG | -3.06 ± 0.12 | -1.56 ± 0.098
16 | AUCAAGCAAUAUUACGCCAU | -2.88 ± 0.19 | -1.44 ± 0.13
17 | AUCAAGCAAUAUUACGCCUC | -2.77 ± 0.23 | -1.6 ± 0.21
18 | AUCAAGCAAUAUUACGCGUU | -2.66 ± 0.089 | -0.858 ± 0.095
19 | AUCAAGCAAUAUUACGCUAA | -2.95 ± 0.17 | -1.1 ± 0.14
20 | AUCAAGCAAUAUUACGCUGU | -2.62 ± 0.097 | -1.1 ± 0.084
21 | AUCAAGCAAUAUUACGGAAC | -4.1 ± 0.15 | -2.3 ± 0.12
22 | AUCAAGCAAUAUUACGGACA | -0.967 ± 0.075 | -0.478 ± 0.093
23 | AUCAAGCAAUAUUACGGAGA | -2.57 ± 0.16 | -2.81 ± 0.24
24 | AUCAAGCAAUAUUACGGCUG | -0.736 ± 0.071 | -0.0189 ± 0.11
25 | AUCAAGCAAUAUUACGGGAG | -1.16 ± 0.097 | -0.571 ± 0.099
26 | AUCAAGCAAUAUUACGGGGU | -3.94 ± 0.2 | -2.48 ± 0.15

Row | Sequence | self-splicing fitness (ln) (30 °C) | self-splicing fitness (ln) (37 °C)
27 | AUCAAGCAAUAUUACGGUUA | -1.06 ± 0.092 | -0.342 ± 0.095
28 | AUCAAGCAAUAUUACGUCGA | -1.36 ± 0.068 | -0.157 ± 0.068
29 | AUCAAGCAAUAUUACGUGGU | -2.83 ± 0.2 | -3.11 ± 0.21
30 | AUCCAGCAAUAUUACGAAGA | -1.56 ± 0.18 | -1.64 ± 0.16
31 | AUCCAGCAAUAUUACGAAGG | -3.07 ± 0.2 | -2.8 ± 0.23
32 | AUCCAGCAAUAUUACGACAC | -0.468 ± 0.11 | -0.488 ± 0.16
33 | AUCCAGCAAUAUUACGACGA | -0.497 ± 0.14 | 0.0611 ± 0.12
34 | AUCCAGCAAUAUUACGACGU | -0.176 ± 0.057 | 0.696 ± 0.081
35 | AUCCAGCAAUAUUACGACUA | -0.459 ± 0.097 | -0.0254 ± 0.084
36 | AUCCAGCAAUAUUACGAGUA | -2.01 ± 0.18 | -1.07 ± 0.12
37 | AUCCAGCAAUAUUACGAGUG | -1.66 ± 0.095 | -1.77 ± 0.11
38 | AUCCAGCAAUAUUACGAUAU | -0.123 ± 0.075 | -0.114 ± 0.071
39 | AUCCAGCAAUAUUACGAUCA | -1.43 ± 0.12 | -1.09 ± 0.14
40 | AUCCAGCAAUAUUACGAUCU | -1.84 ± 0.091 | -0.641 ± 0.12
41 | AUCCAGCAAUAUUACGCAUA | -1.19 ± 0.12 | -0.443 ± 0.12
42 | AUCCAGCAAUAUUACGCGCC | -0.363 ± 0.14 | 0.126 ± 0.17
43 | AUCCAGCAAUAUUACGCUCA | 0.0746 ± 0.13 | 0.8 ± 0.17
44 | AUCCAGCAAUAUUACGGAAC | -2.68 ± 0.18 | -1.06 ± 0.15
45 | AUCCAGCAAUAUUACGGAUC | -3.35 ± 0.18 | -3.11 ± 0.2
46 | AUCCAGCAAUAUUACGGGCC | -1.23 ± 0.2 | -1.24 ± 0.33
47 | AUCCAGCAAUAUUACGGGCG | -0.327 ± 0.066 | 0.25 ± 0.089
48 | AUCCAGCAAUAUUACGGUCC | -1.39 ± 0.13 | -0.176 ± 0.21
49 | AUCCAGCAAUAUUACGGUGU | -1.07 ± 0.062 | -0.834 ± 0.079
50 | AUCCAGCAAUAUUACGUAGU | -1.54 ± 0.074 | -0.703 ± 0.093
51 | AUCCAGCAAUAUUACGUAUA | -0.94 ± 0.11 | -1.11 ± 0.14
52 | AUCCAGCAAUAUUACGUCUU | -0.371 ± 0.065 | 0.716 ± 0.081

Row | Sequence | self-splicing fitness (ln) (30 °C) | self-splicing fitness (ln) (37 °C)
53 | AUCCAGCAAUAUUACGUGAU | -2.15 ± 0.1 | -1.04 ± 0.12
54 | AUCCAGCAAUAUUACGUGGA | -4.34 ± 0.39 | -2.23 ± 0.19
55 | AUCCAGCAAUAUUACGUUAU | -1.36 ± 0.072 | -0.198 ± 0.089
56 | AUCCAGCAAUAUUACGUUUG | -2.58 ± 0.12 | -2.93 ± 0.18
57 | AUCGAGCAAUAUUACGAACU | -1.06 ± 0.17 | -0.725 ± 0.19
58 | AUCGAGCAAUAUUACGACGA | -0.908 ± 0.099 | -0.324 ± 0.13
59 | AUCGAGCAAUAUUACGAGAA | – | -2.44 ± 0.34
60 | AUCGAGCAAUAUUACGAUCU | -1.58 ± 0.086 | -0.957 ± 0.08
61 | AUCGAGCAAUAUUACGAUGA | -3.37 ± 0.25 | -1.86 ± 0.16
62 | AUCGAGCAAUAUUACGAUUG | -4.49 ± 0.46 | -3.32 ± 0.26
63 | AUCGAGCAAUAUUACGCAGG | -3.53 ± 0.28 | -2.77 ± 0.22
64 | AUCGAGCAAUAUUACGCCCG | -3.48 ± 0.36 | -0.807 ± 0.32
65 | AUCGAGCAAUAUUACGCCGG | -1.43 ± 0.22 | -1.57 ± 0.3
66 | AUCGAGCAAUAUUACGCUGA | – | -1.82 ± 0.32
67 | AUCGAGCAAUAUUACGGAAA | – | -2.64 ± 0.34
68 | AUCGAGCAAUAUUACGGCCU | -3.22 ± 0.3 | -1.2 ± 0.17
69 | AUCGAGCAAUAUUACGGGAU | -2.82 ± 0.15 | -1.78 ± 0.19
70 | AUCGAGCAAUAUUACGGGCA | -1.99 ± 0.23 | -1.32 ± 0.27
71 | AUCGAGCAAUAUUACGGUUU | -2.08 ± 0.091 | -1.71 ± 0.099
72 | AUCGAGCAAUAUUACGUAAU | -1.91 ± 0.12 | -1.25 ± 0.13
73 | AUCGAGCAAUAUUACGUACC | -3.76 ± 0.35 | -1.53 ± 0.34
74 | AUCGAGCAAUAUUACGUGAA | -2.75 ± 0.14 | -1.83 ± 0.16
75 | AUCGAGCAAUAUUACGUGUU | -2.9 ± 0.22 | -2.42 ± 0.29
76 | AUCGAGCAAUAUUACGUUAC | -3.04 ± 0.28 | -1.82 ± 0.27
